B1: Basic leucine zipper transcriptional factor ATF-like 2 (Homo sapiens), Q8N1L9-1 (parent)
chain: MHLCGGNGLLTQTDPKEQQRQLKKQKNRAAAQRSRQKHTDKADALHQQHESLEKDNLALRKEIQSLQAELAWWSRTLHVHERLCPMDCASCSAPGLLGCWDQAEGLLGPGPQGQHGCREQLELFQTPGSCYPAQPLSPGPQPHDSPSLLQCPLPSLSLGPAVVAEPPVQLSPSPLLFASHTGSSLQGSSSKLSALQPSLTAQTAPPQPLELEHPTRGKLGSSPDNPSSALGLARLQSREHKPALSAATWQGLVVDPSPHPLLAFPLLSSAQVHF

Variants of: B1
Settings: with jun_human JUN

effect of a mutation on the interaction | Variant
disrupting interaction | L59P
